In US8343490B2, “Monoclonal antibody SC104 and derivative thereof specifically binding to a sialyltetraosyl carbohydrate as a potential anti-tumor therapeutic agent” (Cephalon Australia Pty Ltd, priority 2004, dated 2013):

How the values were obtained:
[1] = Blood group antigen ELISA, H type II; type: binding
Description: The Lewis ^y hapten and the type I and type II H blood group antigen (Sigma, Poole, Dorset) were dried microtitre plates by overnight incubation at 37° C. Binding of SC104 mab was assayed by ELISA as described above.

colorectal tumours = assay: Binding to colorectal tumours (summary statement)
C170 xenografts = assay: C170 xenograft therapeutic model; type: in vivo, nude mice; details: administered therapeutically, after C170 xenograft implantation; FIG. 27
Description: Therapeutic model. The colorectal tumour cell line, C170 was maintained in serial passage in nude mice. For therapy the mice were sacrificed and the tumours excised. The tumour was finely minced and […] pieces were implanted, under anaesthetic, subcutaneously into 30 male mice which had been randomly allocated to 4 experimental groups.
Mice were explanted with 3 mm^3 pieces of C170 xenografts. […] On the same days mice were also injected intraperitonealy with 0.2 mg of SC104 mab. Control mice received either SC104 alone or control mouse IgG antibody with 5FU/leucovorin. Tumour size was measured by callipers and tumour cross sectional area calculated on days 12, 16, 19 and 23.

HT-29 = assay: Inhibition of cell growth, MTS; type: cell-based; details: 30 μg/ml
Description: (§1) Inhibition of cell growth. 1×10^3 colorectal C170, C168, C146, CaCO2, Colo205, LoVo and HT29 cells were aliquoted into individual wells of a flat bottomed 96-well plate and left to adhere overnight at 37° C. The following day the cells were treated with: 10, 3, 1, 0.3 and 0 μg/ml of SC104 mab. As a negative control 791T/36 at concentrations 100, 30, 10, 3 and 0 μg/ml, was titrated against each concentration of drug used. Triplicate wells were used. Cells were left for 5 days at 37° C. prior to the addition of MTS reagent to each well and optical density reading at 490 nm.

C146 = assay: Inhibition of cell growth, MTS; type: cell-based; details: 30 μg/ml
Description: as §1

C168 = assay: Inhibition of cell growth, MTS; type: cell-based; details: 30 μg/ml
Description: as §1

C170 = assay: Inhibition of cell growth, MTS; type: cell-based
Description: as §1

CaCO2 = assay: Inhibition of cell growth, MTS; type: cell-based; details: 30 μg/ml
Description: as §1

Colo205 = assay: Inhibition of cell growth, MTS; type: cell-based
Description: as §1

[2] = test system: C14 antigen (90 KDa glycoprotein purified from saliva); assay: ELISA on C14 antigen; type: binding; details: FIG. 4
Description: • Binding to purified antigen preparations. […] Binding of SC104 mab was assayed by ELISA as described above.

[3] = HPTLC immunostaining of C170 lipid extract fractions; type: binding
Description: • Lipid extraction from C170 tumour cells. A pellet of C170 cells (1 ml packed cell volume) was obtained by trypsinisation of a static adherent tissue culture. The pellet was washed in PBS and the excess buffer removed by aspiration following centrifugation, then stored at −80° C. The pellet was extracted with chloroform:methanol (3:1, v/v, 19 ml). The resultant emulsion was centrifuged at 8,000 rpm in a 50 ml solvent resistant (Tefzel) centrifuge tube for 15 min at 4° C. The supernatant was dried down using a rotary evaporator at 30° C. and resuspended in a small volume (˜1 ml) chloroform:methanol:0.5% CaCl2(aq) (50:40:10). • HPTLC analysis of lipid extracts The sample was multiply spotted onto a Merck HPTLC plate and developed in chloroform:methanol:0.5% CaCl2(aq) (50:40:10) as standard. The plates were dried and then placed in an iodine vapour tank. Bands were marked in pencil and the iodine allowed to evaporate off the plate over night. The plates were then immunostained in order to localise the antigen. • Immunostaining of developed HPTLC plates. For SC104 immunostaining, the plates were immersed in polyisobutyl methylmethacrylate (0.1% w/v solution) hexane:chloroform (9:1) for 15 seconds then allowed to dry. The plates were then blocked in 3% BSA in PBS for 1 hr at room temperature, followed by incubation in either test antibody solution (10 μg/ml) or BSA solution, for 1 hr at room temperature. The plates were then washed three times in PBS/Tween-20 (0.1%), before being incubated in rabbit anti-mouse HRP conjugate from Dako (1/250 in PBS) for 1 hr at room temperature. The plates were then washed three times in PBS/Tween −20(0.1%) and once in 10 mM Tris, 100 mM NaCl pH 7.0, 0.1% Tween and developed in Sigma-FAST […] reagent. • Chemical staining of developed HPTLC plates. Orcinol staining was employed to detect the presence of carbohydrate moieties. Developed HPTLC plates were allowed to dry before spraying with orcinol reagent until fully coated. The plates were dried in a stream of hot air and incubated at 100° C. for 15 minutes. Ninhydrin staining was used to detect molecules containing free amino groups. Developed HPTLC plate were first allowed to dry and then dipped in ninhydrin solution (0.25% ninhydrin w/v in acetone) until fully wetted. The plate was then allowed to develop at room temperature for several hours. Results
• Silica column fractionation of lipid extract. A gravity column (150 mm i.d.) was packed with a silica slurry in chloroform:methanol:0.5% CaCl2(aq) (50:40:10). The C170 extract, re-dissolved in ˜1 ml chloroform:methanol:0.5% CaCl2(aq) (50:40:10) was loaded onto the column and eluted using the same solvent conditions. Fractions were collected and analysed by HPTLC. […]

[4] = concentrations in excess of 10 μg/ml, FIG. 20

B1: SC104: mouse IgG1 monoclonal antibody specific for a sialyltetraosyl carbohydrate, raised by immunisation with colorectal cancer cell lines (antibody, V domains shown)
VH: DVQLQESGPDLVKPSQSLSLTCTVTGYSITSGYSWHWVRQFPGNKMEWMGHIHFSGRPTYNPSLSSRISITRDTSKNQFLLQLKFVTTEDTSTYFCARKGKGSDDGLNYWGQGISVTVSS
VL: ENVLTQSPVIMSASPGEKVTMTCSASSSLSYIHWYQQKSRTSPKLWIYDTSNLASGVPGRFSGSGSGNSYSLTISSMEAEDVATYYCFQGSEYPLTFGGGTKLEMT
Binding to blood group antigens by ELISA: H blood group Type II [1]: 0.076 OD 405 nm
colorectal tumours bound (colorectal tumours): 71%
inhibition of tumour growth (C170 xenografts): neither 5FU nor SC104 alone significantly inhibited growth
% inhibition of cell growth as measured by MTS staining (HT-29): 5%
% inhibition of cell growth as measured by MTS staining (C146): 65%
% inhibition of cell growth as measured by MTS staining (C168): 55%
% inhibition of cell growth as measured by MTS staining (C170; 30 μg/ml): 70%
inhibition of growth of adherent cells (MTS) (C170; [4]): inhibited growth
% inhibition of cell growth as measured by MTS staining (CaCO2): 20%
% inhibition of cell growth as measured by MTS staining (Colo205; 30 μg/ml): 55%
inhibition of growth of adherent cells (MTS) (Colo205; [4]): inhibited growth
binding to Lewis ^y/b expressing 90 KDa glycoprotein from saliva by ELISA [2]: bound
binding after chemical removal of sialic acids (acid hydrolysis) ([3]; 0.05 M sulphuric acid, 80° C., 2 hrs): complete loss of SC104 binding
binding to asialo form ([3]; HPTLC immunostaining): does not bind to an asialo form
binding to sialylated glycolipid forms ([3]; HPTLC immunostaining, silica column fractions): bind to a mono, di and even polysialylated glycolipid
binding after ceramide glycanase removal of oligosaccharides ([3]; aqueous and organic phase, FIG. 8): loss of SC104 binding in both fractions
